Numbering of substitutions follows the chain as printed.
B1: RSV/B.099 (other)
chain: QNITEEFYQSTCSAVSRGYLSALRTGWYTSVITIELSNIKEVKCNGTDTKVKLIKQELDKYKNAVTELQLLMQNTPAVNNRARREAPQYMNYTINTTKNLNVSISKKRKRRFLGFLLGVGSAIASGIAVCKVLHLEGEVNKIKNALQLTNKAVVSLSNGVSVLTFRVLDLKNYINNQLLPMLNRQSCRISNIETVIEFQQKNSRLLEITREFSVNAGVTTPLSTYMLTNSELLSLINDMPITNDQKKLMSSNVQIVRQQSYSIMCIIKEEVLAYVVQLPIYGVIDTPCWKLHTSPLCTTNIKEGSNICLTRTDRGWYCDNAGSVSFFPQADTCKVQSNRVFCDTMNSLTLPSEVSLCNTDIFNSKYDCKIMTSKTDISSSVITSLGAIVSCYGKTKCTASNKNRGIIKTFSNGCDYVSNKGVDTVSVGNTLYYVNKLEGKNLYVKGEPIINYYDPLVFPSDRFDASISQVNEAINQSLAFIRRSDELLGSGGSGSGSGGSEKAAKAEEAARKMEELFKKHKIVAVLRANSVEEAIEKAVAVFAGGVHLIEITFTVPDADTVIKALSVLKEKGAIIGAGTVTSVEQARKAVESGAEFIVSPHLDEEISQFAKEKGVFYMPGVMTPTELVKAMKLGHTILKLFPGEVVGPQFVKAMKGPFPNVKFVPTGGVNLDNVAEWFKAGVLAVGVGSALVKGTPDEVREKAKAFVEKIRGATELEHHHHHH
B2: RSV/B.123 (other)
chain: B1 chain with T375D, D464A
B3: RSV/B.093 (other)
chain: B1 chain with V42T, T375D, D461A, F463W, D464A
B4: RSV/B.081 (other)
chain: B1 chain with V42T, T375D, D461A, D464A
B5: RSV/B.100 (other)
chain: B1 chain with T224P
B6: RSV/B.002 (other)
chain: B1 chain with V42T, R462E, A473K
notes: DS-Cav1 control; also called DS-Cav1 RSV/B.002
B7: RSV/B.148 (other)
chain: QNITEEFYQSTCSAVSRGYLSALRTGWYTSVITIELSNIKETKCNGTDTKVKLIKQELDKYKNAVTELQLLMQNTPAVNNRARREAPQYMNYTINTTKNLNVSISKKRKRRFLGFLLGVGSAIASGIAVCKVLHLEGEVNKIKNALQLTNKAVVSLSNGVSVLTFRVLDLKNYINNQLLPMLNRQSCRISNIETVIEFQQKNSRLLEITREFSVNAGVTTPLSPYMLTNSELLSLINDMPITNDQKKLMSSNVQIVRQQSYSIMCIIKEEVLAYVVQLPIYGVIDTPCWKLHTSPLCTTNIKEGSNICLTRTDRGWYCDNAGSVSFFPQADTCKVQSNRVFCDTMNSLTLPSEVSLCNTDIFNSKYDCKIMTSKTDISSSVITSLGAIVSCYGKTKCTASNKNRGIIKTFSNGCDYVSNKGVDTVSVGNTLYYVNKLEGKNLYVKGEPIINYYDPLVFPSDRFDASISQVNEAINQSREIIRAINIVRKIASEKGSGGSGSGSGGSEKAAKAEEAARKMEELFKKHKIVAVLRANSVEEAIEKAVAVFAGGVHLIEITFTVPDADTVIKALSVLKEKGAIIGAGTVTSVEQARKAVESGAEFIVSPHLDEEISQFAKEKGVFYMPGVMTPTELVKAMKLGHTILKLFPGEVVGPQFVKAMKGPFPNVKFVPTGGVNLDNVAEWFKAGVLAVGVGSALVKGTPDEVREKAKAFVEKIRGATELLEHHHHHH
B8: RSV/B.171 (other)
chain: QNITEEFYQSTCSAVSRGYLSALRTGWYTSVITIELSNIKETKCNGTDTKVKLIKQELDKYKNAVTELQLLMQNTPAVNNRARREAPQYMNYTINTTKNLNVSISKKRKRRFLGFLLGVGSAIASGIAVCKVLHLEGEVNKIKNALQLTNKAVVSLSNGVSVLTFRVLDLKNYINNQLLPMLNRQSCRISNIETVIEFQQKNSRLLEITREFSVNAGVTTPLSTYMLTNSELLSLINDMPITNDQKKLMSSNVQIVRQQSYSIMCIIKEEVLAYVVQLPIYGVIDTPCWKLHTSPLCTTNIKEGSNICLTRTDRGWYCDNAGSVSFFPQADTCKVQSNRVFCDTMNSLTLPSEVSLCNTDIFNSKYDCKIMTSKDDISSSVITSLGAIVSCYGKTKCTASNKNRGIIKTFSNGCDYVSNKGVDTVSVGNTLYYVNKLEGKNLYVKGEPIINYYDPLVFPSDRFAASISQVNEAINQSREIIRAINIVRKIASEKGSGGSGSGSGGSEKAAKAEEAARKMEELFKKHKIVAVLRANSVEEAIEKAVAVFAGGVHLIEITFTVPDADTVIKALSVLKEKGAIIGAGTVTSVEQARKAVESGAEFIVSPHLDEEISQFAKEKGVFYMPGVMTPTELVKAMKLGHTILKLFPGEVVGPQFVKAMKGPFPNVKFVPTGGVNLDNVAEWFKAGVLAVGVGSALVKGTPDEVREKAKAFVEKIRGATELEHHHHHH
B9: RSV/B.189 (other)
chain: B8 chain with D461A, F463W
B10: RSV/B.178 (other)
chain: B8 chain with T224P, D461A
B11: RSV/B.147 (other)
chain: B8 chain with D375T, A464D
B12: RSV/B.160 (other)
chain: B8 chain with T224P, F463W
B13: RSV/B.195 (other)
chain: B8 chain with D375T, R462E, A464D, A473K
B14: RSV/B.172 (other)
chain: B8 chain with T224P

Target: T1, I53-50B.4PosT1
T1 construct: also called second component; CompB
Test: in vitro assembly with I53-50B, DLS
Method: Selected constructs were incubated with a second component, I53-50B, to form nanostructures. Dynamic Light Scattering (DLS) and negative-stain electron microscopy (nsEM) confirm assembly as nanostructure. A representative electron micrograph is shown in FIG. 5 (RSV/B.195, having the DS-Cav).
Assembly: Molar concentrations for RSV/B or RSV/A trimers fused to I53-50AΔcys and I53-50B (second component, using the sequence of I53-50B.4PosT1, SEQ ID NO:46) were determined using UV-Vis spectroscopy. Absorbance values at 280 nm were collected and divided by calculated molar extinction coefficients (ExPASy). The assembly reaction to produce RSVB antigen-bearing nanostructures was performed in vitro with the addition of components as follows: RSV F trimers fused to I53-50AΔcys were added to PCR tubes in 1.5× molar excess of I53-50B, then assembly buffer (20 mM Tris pH 7.4, 250 mM NaCl, 4% sucrose) was added to the sample in PCR tubes, and finally I53-50B was added to the reaction to bring the assemblies to a final concentration of 7.5 μM and a final volume of 47.5 μL. The reaction was incubated at ambient temperature for ˜30 minutes with gentle rocking prior to subsequent measurement by dynamic light scattering (DLS). All constructs were assembly competent under the conditions tested. Prior to nsEM analysis or immunogenicity studies, assembled nanostructures were further purified by size exclusion chromatography over a Superose 6 Increase 10/300 GL column into 20 mM Tris pH 7.4, 250 mM NaCl, 4% sucrose.

Binder	binding result
B1	binds
B2	binds
B3	binds
B4	binds
B5	binds
B6	binds
B7	binds
B8	binds
B9	binds
B10	binds
B11	binds
B12	binds
B13	binds
B14	binds
